Earlier results, collected in article PMC7843923.

What was measured:
[1] = molecular target: Unc5D (UniProt Q6UXZ4)
[2] = molecular target: Latrophilin3 (UniProt Q9HAR2)
Chain of UniProt Q9HAR2 (Q9HAR2 20-862): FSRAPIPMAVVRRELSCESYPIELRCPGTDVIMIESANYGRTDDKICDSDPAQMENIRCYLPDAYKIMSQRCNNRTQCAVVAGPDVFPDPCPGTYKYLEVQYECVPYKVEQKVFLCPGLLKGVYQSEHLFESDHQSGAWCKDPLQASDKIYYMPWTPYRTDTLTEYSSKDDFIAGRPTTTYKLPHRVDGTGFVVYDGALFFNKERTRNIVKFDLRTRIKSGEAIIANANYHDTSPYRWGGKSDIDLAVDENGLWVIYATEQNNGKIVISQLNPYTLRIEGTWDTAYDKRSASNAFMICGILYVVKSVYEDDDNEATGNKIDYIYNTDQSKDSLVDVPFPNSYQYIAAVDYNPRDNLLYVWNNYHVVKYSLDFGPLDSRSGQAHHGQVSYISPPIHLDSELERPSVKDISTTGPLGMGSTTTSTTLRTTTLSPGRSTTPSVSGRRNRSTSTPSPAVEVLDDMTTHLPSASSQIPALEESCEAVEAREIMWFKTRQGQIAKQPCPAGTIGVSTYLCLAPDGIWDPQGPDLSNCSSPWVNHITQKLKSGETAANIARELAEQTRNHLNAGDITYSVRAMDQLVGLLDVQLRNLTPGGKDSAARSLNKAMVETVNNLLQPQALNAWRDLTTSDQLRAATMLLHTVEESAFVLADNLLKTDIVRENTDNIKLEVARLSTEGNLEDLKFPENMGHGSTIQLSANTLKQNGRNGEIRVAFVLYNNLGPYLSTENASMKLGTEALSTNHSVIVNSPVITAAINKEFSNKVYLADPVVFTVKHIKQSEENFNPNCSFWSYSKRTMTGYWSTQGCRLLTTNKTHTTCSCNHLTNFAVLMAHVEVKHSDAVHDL

Chain of UniProt Q6UXZ4 (Q6UXZ4 33-379): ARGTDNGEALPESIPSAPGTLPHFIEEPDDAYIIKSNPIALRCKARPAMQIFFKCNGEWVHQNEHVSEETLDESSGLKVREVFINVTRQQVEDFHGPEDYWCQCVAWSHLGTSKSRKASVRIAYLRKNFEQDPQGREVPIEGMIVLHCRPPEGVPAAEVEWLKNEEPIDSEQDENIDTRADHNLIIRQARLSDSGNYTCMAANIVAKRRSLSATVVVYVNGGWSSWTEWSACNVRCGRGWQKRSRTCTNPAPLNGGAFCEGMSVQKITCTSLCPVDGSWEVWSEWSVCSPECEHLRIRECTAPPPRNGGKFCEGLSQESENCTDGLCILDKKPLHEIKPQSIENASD

| Kd [1] | Kd [2] | Substance |
| --- | --- | --- |
| 0.31 µM | – | FLRT2 (from UniProt O43155) |
| – | 0.04 µM | FLRT (from UniProt Q9NZU0) |
